Measurements taken from article PMC3774783.

Biological target: HCoV-OC43 N WT (Human coronavirus OC43, UniProt P33469 1-448)
Test: SPR

Sequence of HCoV-OC43 N WT (P33469 whole entry): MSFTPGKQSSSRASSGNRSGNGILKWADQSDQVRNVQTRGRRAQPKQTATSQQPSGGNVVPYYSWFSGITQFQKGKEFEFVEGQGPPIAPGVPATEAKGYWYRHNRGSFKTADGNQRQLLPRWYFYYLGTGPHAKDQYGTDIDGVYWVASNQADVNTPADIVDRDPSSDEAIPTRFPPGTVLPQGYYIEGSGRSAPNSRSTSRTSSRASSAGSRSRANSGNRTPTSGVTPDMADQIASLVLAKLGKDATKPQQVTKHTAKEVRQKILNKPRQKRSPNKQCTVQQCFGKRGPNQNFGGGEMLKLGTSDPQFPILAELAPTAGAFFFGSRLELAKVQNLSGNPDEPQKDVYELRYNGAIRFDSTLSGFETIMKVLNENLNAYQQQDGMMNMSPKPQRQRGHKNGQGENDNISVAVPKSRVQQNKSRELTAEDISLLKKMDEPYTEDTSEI

UCUAAACUCUAAACUCUAAACUCUAAAC (ssRNA) [(UCUAAAC)4 28-mer]
Kd: 11.7 ± 0.82 nM
